Patent US20200283528A1 (NUMAB THERAPEUTICS, published 2020)

What was measured:
[1] = target: T1, human PDL1 expressed on cells (human, UniProt Q9NZQ7 19-290); experiment: cell-based or functional assay
[2] = target: T1, human PDL1 expressed on cells; experiment: cell-based or functional assay; remark: listed apart in the source
[3] = target: T2, human PDL1 (recombinant, soluble) (human, UniProt Q9NZQ7 19-238); experiment: PDL1/PD-1 competition ELISA; PD-1 coated, biotinylated PDL1 1 ng/ml
T2 construct: also called hPDL1; hPD-L1
Description: (§1) ELISA microplates coated overnight at 4° C. with 4 μg/ml human PD-1 were washed three times with 450 μl wash buffer per well. Plates were blocked for 1 hour at room temperature by adding 300 μl of PBS with 1% BSA and 0.2% tween (dilution buffer) to each well. […] The mixtures were pre-incubated for 1 hour at room temperature under gentle agitation on a rotating mixer (21 rpm) and added to the microplates after 3 wash cycles with 450 μl wash buffer per well. Plates were incubated for 1.5 hours at room temperature under gentle agitation, then 10 ng/ml streptavidin-polyHRP40 was added to each microplate well after three washes with 450 μl of wash buffer per well. After 1 h incubation at RT, plates were washed three times with 450 μl wash buffer and TMB substrate solution was added. The enzymatic reaction was stopped after 6 minutes by addition of 1 M HCl and absorbance was measured at 450 nm using 690 nm as a reference wavelength. For calculation of IC₅₀ values, a four-parameter logistic (4PL) curve fit was performed in Graph Pad Prism using reference subtracted values.

[4] = target: T2, human PDL1 (recombinant, soluble); experiment: PDL1/B7-1 competition ELISA; B7-1 coated, biotinylated PDL1 40 ng/ml
Description: as §1, with “B7-1” for “PD-1”

B1: PRO885 (38-02-A04 sc01 scDb-i/33-03-G02 sc01 scDb-o) (bispecific antibody)
chain: DIQMTQSPSSLSASVGDRVTITCQASQSINDYLAWYQQKPGKAPKLLIYKASTLASGVPSRFSGSGSGTDFTLTISSLQPEDFATYYCQQGYIITDIDNVFGTGTKVTVLGGGGGSQVQLQESGPGLVKPSETLSLTCKVSGFSFSNSYWICWIRQPPGKGLEWIGCTFVGSSDSTYYANWAKGRVTISVDSSKNQFSLKLSSVTAADTAVYYCARHPSDAVYGYANNLWGQGTLVTVSSGGGGSGGGGSGGGGSGGGGSIQMTQSPSSLSASVGDRVTITCQASQSINNVLAWYQQKPGKAPKLLIYRASTLASGVPSRFSGSGSGTDFTLTISSLQPEDFATYYCQSSYGNYGDFGTGTKVTVLGGGGGSQVQLQESGPGLVKPSETLSLTCKVSGFSFSSGYDMCWIRQPPGKGLEWIGCVVAGSVDITYYASWAKGRVTISVDSSKNQFSLKLSSVTAADTAVYYCARKDAYSDAFNLWGQGTLVTVSS
[1]
  NF-AT potency assay IC50: 0.137 µg/mL
[2]
  IL-2 secretion of SEA stimulated PBMC, EC50 in ng/ml: 39.9 ng/mL
[3]
  IC50: 0.00835 µg/mL
[4]
  IC50: 0.0122 µg/mL

B2: PRO951 (38-27-C05 sc02 scDb-i/33-03-G02 sc01 scDb-o) (bispecific antibody)
chain: DIQMTQSPSSLSASVGDRVTITCQASQSINDYLAWYQQKPGKAPKLLIYKASTLASGVPSRFSGSGSGTDFTLTISSLQPEDFATYYCQQGYIITDIDNVFGTGTKVTVLGGGGGSEVQLVESGGGLVQPGGSLRLSCAASGFSFNNDYDMCWVRQAPGKGLEWIGCIDTGDGSTYYASWAKGRFTISRDNSKNTVYLQMNSLRAEDTAVYYCAREAASSSGYGMGYFDLWGQGTLVTVSSGGGGSGGGGSGGGGSGGGGSIQMTQSPSSLSASVGDRVTITCQSSQSVYDNNWLAWYQQKPGKAPKLLIYRASNLASGVPSRFSGSGSGTDFTLTISSLQPEDFATYYCQGTYLSSNWYWAFGTGTKVTVLGGGGGSQVQLQESGPGLVKPSETLSLTCKVSGFSFSSGYDMCWIRQPPGKGLEWIGCVVAGSVDITYYASWAKGRVTISVDSSKNQFSLKLSSVTAADTAVYYCARKDAYSDAFNLWGQGTLVTVSS
[1]
  NF-AT potency assay IC50: 0.0885 µg/mL
[3]
  IC50: 0.0095 µg/mL
[4]
  IC50: 0.0093 µg/mL

B3: PRO1059 (33-03-G02 IgG1 LC with 38_02_A04 sc01 scFv, PDL1/CD137 (scFv) silent Morrison) (bispecific antibody)
light: DIQMTQSPSSLSASVGDRVTITCQASQSINDYLAWYQQKPGKAPKLLIYKASTLASGVPSRFSGSGSGTDFTLTISSLQPEDFATYYCQQGYIITDIDNVFGTGTKVTVLGTVAAPSVFIFPPSDEQLKSGTASVVCLLNNFYPREAKVQWKVDNALQSGNSQESVTEQDSKDSTYSLSSTLTLSKADYEKHKVYACEVTHQGLSSPVTKSFNRGECGGGGSGGGGSIQMTQSPSSLSASVGDRVTITCQASQSINNVLAWYQQKPGKAPKLLIYRASTLASGVPSRFSGSGSGTDFTLTISSLQPEDFATYYCQSSYGNYGDFGTGTKVTVLGGGGGSGGGGSGGGGSGGGGSQVQLQESGPGLVKPSETLSLTCKVSGFSFSNSYWICWIRQPPGKGLEWIGCTFVGSSDSTYYANWAKGRVTISVDSSKNQFSLKLSSVTAADTAVYYCARHPSDAVYGYANNLWGQGTLVTVSS
heavy: QVQLQESGPGLVKPSETLSLTCKVSGFSFSSGYDMCWIRQPPGKGLEWIGCVVAGSVDITYYASWAKGRVTISVDSSKNQFSLKLSSVTAADTAVYYCARKDAYSDAFNLWGQGTLVTVSSASTKGPSVFPLAPSSKSTSGGTAALGCLVKDYFPEPVTVSWNSGALTSGVHTFPAVLQSSGLYSLSSVVTVPSSSLGTQTYICNVNHKPSNTKVDKRVEPKSCDKTHTCPPCPAPEAAGGPSVFLFPPKPKDTLMISRTPEVTCVVVDVSHEDPEVKFNWYVDGVEVHNAKTKPREEQYNSTYRVVSVLTVLHQDWLNGKEYKCKVSNKALGAPIEKTISKAKGQPREPQVYTLPPSREEMTKNQVSLTCLVKGFYPSDIAVEWESNGQPENNYKTTPPVLDSDGSFFLYSKLTVDKSRWQQGNVFSCSVMHEALHNHYTQKSLSLSPGK
notes: also called Morrison-L
[1]
  NF-AT potency assay IC50: 0.0938 µg/mL
[3]
  IC50: 0.00454 µg/mL
[4]
  IC50: 0.029 µg/mL

B4: PRO1060 (33-03-G02 IgG1 HC with 38_02_A04 sc01 scFv, PDL1/CD137 (scFv) silent Morrison) (bispecific antibody)
light: DIQMTQSPSSLSASVGDRVTITCQASQSINDYLAWYQQKPGKAPKLLIYKASTLASGVPSRFSGSGSGTDFTLTISSLQPEDFATYYCQQGYIITDIDNVFGTGTKVTVLGTVAAPSVFIFPPSDEQLKSGTASVVCLLNNFYPREAKVQWKVDNALQSGNSQESVTEQDSKDSTYSLSSTLTLSKADYEKHKVYACEVTHQGLSSPVTKSFNRGEC
heavy: QVQLQESGPGLVKPSETLSLTCKVSGFSFSSGYDMCWIRQPPGKGLEWIGCVVAGSVDITYYASWAKGRVTISVDSSKNQFSLKLSSVTAADTAVYYCARKDAYSDAFNLWGQGTLVTVSSASTKGPSVFPLAPSSKSTSGGTAALGCLVKDYFPEPVTVSWNSGALTSGVHTFPAVLQSSGLYSLSSVVTVPSSSLGTQTYICNVNHKPSNTKVDKRVEPKSCDKTHTCPPCPAPEAAGGPSVFLFPPKPKDTLMISRTPEVTCVVVDVSHEDPEVKFNWYVDGVEVHNAKTKPREEQYNSTYRVVSVLTVLHQDWLNGKEYKCKVSNKALGAPIEKTISKAKGQPREPQVYTLPPSREEMTKNQVSLTCLVKGFYPSDIAVEWESNGQPENNYKTTPPVLDSDGSFFLYSKLTVDKSRWQQGNVFSCSVMHEALHNHYTQKSLSLSPGKGGGGSGGGGSIQMTQSPSSLSASVGDRVTITCQASQSINNVLAWYQQKPGKAPKLLIYRASTLASGVPSRFSGSGSGTDFTLTISSLQPEDFATYYCQSSYGNYGDFGTGTKVTVLGGGGGSGGGGSGGGGSGGGGSQVQLQESGPGLVKPSETLSLTCKVSGFSFSNSYWICWIRQPPGKGLEWIGCTFVGSSDSTYYANWAKGRVTISVDSSKNQFSLKLSSVTAADTAVYYCARHPSDAVYGYANNLWGQGTLVTVSS
notes: also called Morrison-H
[1]
  NF-AT potency assay IC50: 0.133 µg/mL
[3]
  IC50: 0.00567 µg/mL
[4]
  IC50: 0.0174 µg/mL

B5: PRO1013 (37-20-B03-sc02 scFv) (scFv)
scFv: DIQMTQSPSSLSASVGDRVTITCQASQSIGTYLAWYQQKPGKAPKLLIYRAFILASGVPSRFSGSGSGTDFTLTISSLQPEDFATYYCQSNFYSDSTTIGPNAFGTGTKVTVLGGGGGSGGGGSGGGGSGGGGSQVQLVQSGAEVKKPGASVKVSCKASGFSFNSDYWIYWVRQAPGQGLEWMGSIYGGSSGNTQYASWAQGRVTMTRDTSISTAYMELSSLRSEDTAVYYCARGYVDYGGATDLWGQGTLVTVSS
notes: also called 37-20-B03 CDR, VH1
[1]
  NF-AT potency assay IC50: 0.0213 µg/mL
[3]
  IC50: 0.00057 µg/mL
[4]
  IC50: 0.00405 µg/mL

B6: PRO1062 (33-03-G02 sc01 IgG1 HC with 38_27_C05 sc01 scFv, PDL1/CD137 (scFv) silent Morrison) (bispecific antibody)
light: DIQMTQSPSSLSASVGDRVTITCQASQSINDYLAWYQQKPGKAPKLLIYKASTLASGVPSRFSGSGSGTDFTLTISSLQPEDFATYYCQQGYIITDIDNVFGTGTKVTVLGTVAAPSVFIFPPSDEQLKSGTASVVCLLNNFYPREAKVQWKVDNALQSGNSQESVTEQDSKDSTYSLSSTLTLSKADYEKHKVYACEVTHQGLSSPVTKSFNRGEC
heavy: QVQLQESGPGLVKPSETLSLTCKVSGFSFSSGYDMCWIRQPPGKGLEWIGCVVAGSVDITYYASWAKGRVTISVDSSKNQFSLKLSSVTAADTAVYYCARKDAYSDAFNLWGQGTLVTVSSASTKGPSVFPLAPSSKSTSGGTAALGCLVKDYFPEPVTVSWNSGALTSGVHTFPAVLQSSGLYSLSSVVTVPSSSLGTQTYICNVNHKPSNTKVDKRVEPKSCDKTHTCPPCPAPEAAGGPSVFLFPPKPKDTLMISRTPEVTCVVVDVSHEDPEVKFNWYVDGVEVHNAKTKPREEQYNSTYRVVSVLTVLHQDWLNGKEYKCKVSNKALGAPIEKTISKAKGQPREPQVYTLPPSREEMTKNQVSLTCLVKGFYPSDIAVEWESNGQPENNYKTTPPVLDSDGSFFLYSKLTVDKSRWQQGNVFSCSVMHEALHNHYTQKSLSLSPGKGGGGSGGGGSIQMTQSPSSLSASVGDRVTITCQASQSINNVLAWYQQKPGKAPKLLIYRASTLASGVPSRFSGSGSGTDFTLTISSLQPEDFATYYCQSSYGNYGDFGTGTKVTVLGGGGGSGGGGSGGGGSGGGGSQVQLQESGPGLVKPSETLSLTCKVSGFSFSNSYWICWIRQPPGKGLEWIGCTFVGSSDSTYYANWAKGRVTISVDSSKNQFSLKLSSVTAADTAVYYCARHPSDAVYGYANNLWGQGTLVTVSS
notes: also called Morrison-H
[3]
  IC50: 0.0113 µg/mL
[4]
  IC50: 0.0195 µg/mL
